According to the RNAGym collection of RNA variant scans (doi:10.1073/pnas.2313332121):

B1: TPR t1 (parent)
chain: GACCAAUCUGCCCUCAGAGCUCGAGAACAUCUUCGGAUGCAGAGGAGGCAGGCUUCGGUGGCGCGAUAGCGCCAACGUCCUCAACCUCCAAUGCAUCCCACCACAUGAUGAUGCCUGAAGAGCCUUGGUUUUUUG

Variants of: B1
Assay: polymerase ribozyme fitness, log enrichment relative to wild type (log ratio); higher = more active; in vitro selection for triplet polymerase activity
Outline: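 Input and output libraries were sequenced on Illumina after a single in vitro selection round, run in triplicate on PCR-built, transcribed mutant libraries of each subunit of a heterodimeric triplet polymerase ribozyme. Selection annealed libraries to a biotinylated primer, the partner subunit and triplets, incubated them frozen at −7 °C, then gel-excised extended constructs for streptavidin-bead capture and RT-PCR. Genotypes with ≥10 input reads and ≥1 read per output were kept. Fitness is the logarithm, taken in base 2, of genotype enrichment divided by wild-type enrichment, using inverse-variance-weighted replicate averages.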

Variant | polymerase ribozyme fitness (log ratio)
GACCAAUCUGCCCUCAGAGCUCGAGAACAUCUUCGUAUGCAGAGGAGGCCGGCUUCGGUAGCGCGAUAGCGCCAACGUCCUCAACCUCCAAUGCAUCCCACCACAUGAUGAUGCCUGAAGAGCCUUGGUUUUUUG [G36U A50C G60A] | -2
GACCAAUCUGCCCUCAGAGCUCGAGAACAUCUUCGCAUGCAGAGGAGGCAGGCUUCGCUGGCGCGAUAGCGCCAACGUCCUCAACCUCCAAUGCAUCCCAGCACAUGAUGUUGCCUGAAGAGCCUUGGUUUUUUG [G36C G58C C101G A111U] | -5
GACCAAUCUGCCCUCAGAGCUCGAGAACAUCUUCGCAUGCAGAGGAGGCAGGCUUCGGUGGCGCGAUAGCGCCAACGUCCUCAACCUCCAAUGCAUCCCACCACAUGAUGAUGCCUGAAGAGCCUUGGUGUUUUG [G36C U130G] | -1.39
GACCAAUCUGCCCUCAGAGCUCGAGAACAUCUUCGCAUGCAGAGGAGGCAGGCUUCGGUGGCUCGAUAGCGCCAACGUCCUCGACCUCCAAUGCAUCCCACCACAUGAUGAUGCCUGAAGAGCCUGGGUUUUUUG [G36C G63U A83G U126G] | -5.42
GACCAAUCUGCCCUCAGAGCUCGAGAACAUCUUCGCAUGCAGAGGAGGCAGGCUUCGGUGUCGCGAUAGCGCCAACGUCCUCAACCUCCAAUGCCUCCCACCACAUGAUGAUGCCUGAAGAGCCUUGGUUUUUUG [G36C G61U A95C] | -2.42
GACCAAUCUGCCCUCAGAGCUCGAGAACAUCUUCGUAUGCAGAGGAGGCAGGCUUCGGUGGCGCGAUAGGGCCAACGUCCUCAACCUCCAAUGCAUCCCAACACAUGAUGAUGCCUGAAAAGCCUUGGUUUUUUG [G36U C70G C101A G120A] | -3.68
GACCAAUCUGCCCUCAGAGCUCGAGAACAUCUUCGUAUGGAGAGGAGGCAGGCUUCGGUGGCGCGAUAGCGCCAACGUCCUCAACCUCCAAUGCAUCCCACCACAUGAUGAUGCCUGAAGAGCCUUGGUUUUUUG [G36U C40G] | -2.33
GACCAAUCUGCCCUCAGAGCUCGAGAACAUCUUCGUAUGCAGAGGAGGCAGGAUUCGGUGGCGCGAUAGCGCCAACGUCCUCAACCUCGAAUGCAUCCCACCACAUGAUGAUGCCUGAAGAGCCUUGGUUUUUUG [G36U C53A C89G] | -2.84
GACCAAUCUGCCCUCAGAGCUCGAGAACAUCUUCGUAUGCAGAGGAGGCAGGCUUCGGUGGCGCGAUAGCGCCAACGUACUCAACCUCCAAUGCAUCCCACCACAUGAUGAUGCCUGAAGAGCCUUGGUUUUUUG [G36U C79A] | -3.02
GACCAAUCUGCCCUCAGAGCUCGAGAACAUCUUCGUAUGCAGAGGAGGCAGGCUUCGGUGGCGCGAUAGCGCCAACGUCCUCAACCUCCAAUGCAUCCCACCACAUGAUGAUGCCUGGAGAGCCUUGAUUUUUUG [G36U A118G G128A] | -3.98
GACCAAUCUGCCCUCAGAGCUCGAGAACAUCUUCGUAUGCAGAGGAGGUAGGCUUCGGUGGCGCGAUAGCGCCAACGUCCUCAACCUCCAAUGCUUCCCACCACAUGAUGAUGCCUGAAGAGCCUUGGUUUUUUG [G36U C49U A95U] | -3.5
GACCAAUCUGCCCUCAGAGCUCGAGAACAUCUUCGUAUGCAGAGGAGGUAGGCUUCGGUGGCGCGAUAGCGCCAACGUCCUCAACCUCCAAUGCAUCCCACCACAUGAUGAUGCCUGAAGAGCCUUGGUUUUUUG [G36U C49U] | -2.72
GACCAAUCUGCCCUCAGAGCUCGAGAACAUCUUCGUAUGCAGAGGAGGCAGGCUUCGGUGGCGCGAUAGCGACAACGUCCUCAAACUCCAAAGCAUCCCACCACAUGAUGAAGCCUGAAGAGCCUUGGAUUUUUG [G36U C72A C85A U92A U112A U129A] | -5.86
GACCAAUCUGCCCUCAGAGCUCGAGAACAUCUUCGUAUGCAGAGGAGGCAGGCUUCGGUGGCGCGAUAGCGCCAAAGUCCUCAACCUCCAAUGCAUCGCACCACAUGACGAUGGCUGAAGAGCCUUGGUUUUUUG [G36U C76A C98G U109C C114G] | -6.07
GACCAAUCUGCCCUCAGAGCUCGAGAACAUCUUCGUAUGCAGAGGAGGCAGGCUUUGGUGGCGCGAUAGCGCCAACGUCCUCAACCUCCAAUGCAUACCACCACAUGAUGAUGCCUGAAGAGCCUUGGUUUUUUG [G36U C56U C97A] | -0.495
GACCAAUCUGCCCUCAGAGCUCGAGAACAUCUUCGUAUGCAGAGGAGGCAGGCUUCGGUGGCGCGAUAGCGCCAACGUCCUCAACCUCCAAUGCAUCCCACCACAUGAUGAUGCCUGAAGCGCCAUUCUUUUUUG [G36U A121C U125A G127U G128C] | -0.954
GACCAAUCUGCCCUCAGAGCUCGAGAACAUCUUCGUAUGCUGAGGAGGCAGGCUUCGGUGGCGCGAUAGCGCCAACGUCCUCAACCUCCAAUGCAUCCCACCACAUGAUGAUGCCUGAAGAGCCUUGGUUUUUUG [G36U A41U] | -2.77
GACCAAUCUGCCCUCAGAGCUCGAGAACAUCUUCGUAUGCAGAGGAGGCAGGCUUCGGUGGCGCGAUAGCGCCAACGUCCUCACGUUCCAAUGCAUCCCACCACAUGAUGAUGCCUGAAGAGCCUUGGUUUUUUG [G36U A84C C85G C86U] | -2.86
GACCAAUCUGCCCUCAGAGCUCGAGAACAUCUUCGUAUGCAGAGGAGGCAGGCUUCGGUGGCGCGAUAGCGCCAACGUCCUCAACCUCCAAUGCAUCCCACCUCAUGAUGAUGUCUGAAGAGCCUUGGUUUUUUG [G36U A103U C114U] | -5.26
GACCAAUCUGCCCUCAGAGCUCGAGAACAUCUUCGCAUGCAGAGGAGGCAGGCUUCGGUGGCGCGAUAGCGCCAACGUCCUCAACCUCCAAUGCAUCCCACCACAUGAUGAAGCCUGAAGAGCCUUGGUUUUUUG [G36C U112A] | -1.13
GACCAAUCUGCCCUCAGAGCUCGAGAACAUCUUCGUUUGCAGAGGAGGCAGGCUUCGGUGGCGCGAUAGCGCCAACGUCCUCAACCUCCAAUGCAUCCCACCACAUGAUGAUGCCUGAAGAGCCUUGGUUUUUUG [G36U A37U] | -1.98

Variant | polymerase ribozyme fitness (log ratio)
GACCAAUCUGCCCUCAGAGCUCGAGAACAUCUUCGCAUGCAGAGGAGGCAGGCUUCGGUGGCGCGAUAGCGCCAACGUCCUCAACCUCCAAUGCAUCCCACCACAUGAUGAUGCCUGAAGAGCCUUGCUUUUUUG [G36C G128C] | -4.43
GACCAAUCUGCCCUCAGAGCUCGAGAACAUCUUCGUAUGCAGAGGUGGCAGGCUUCGGUGGCGCGAUAGCGACAACGUCCUCAACCUCCAAUGCAUUCCACCACAUGAUGAUGCCUGAAGAGCCUUGGUUUUUUG [G36U A46U C72A C97U] | -1.58
GACCAAUCUGCCCUCAGAGCUCGAGAACAUCUUCGCAUGCAGAGGAGGCAGGCUUCGGUGGCGCUAUAGCGUCAACGUCCUCAACCUCCAAUGCAUCCCACCACAUAAUGAUGCCUCAAGAGCCUUGAUUUUAUG [G36C G65U C72U G107A G117C G128A U133A] | -7.08
GACCAAUCUGCCCUCAGAGCUCGAGAACAUCUUCGCAUGCAGAGGAGGCAGGCUUCGGUGGCGCGAUAGCGCCAACGUCCUCAACCUCCAAUGCAUCCCACCACAUGAUGAUGCCUGAACAGCCUUGGUUUUUUG [G36C G120C] | 0.237
GACCAAUCUGCCCUCAGAGCUCGAGAACAUCUUCGCAUGCAGAGGAGGCAGGCUUCGGUGGCGCGAUAGCGCCAACGUCCUCAACCUCCAAUGCAUCCCACCACAGGAUGAUGCCUGAAGAGCCUUGGUUUUUUG [G36C U106G] | -3.63
GACCAAUCUGCCCUCAGAGCUCGAGAACAUCUUCGCAUGCAGAGGAGGCAGGCUUCGGUGGCGCGAUAUCGCCAACGUCCUCAACCUCCAUUGAAUCCCACCACAUGAUGAUCCCUGAAGAGCCUUGGUUUUUUG [G36C G69U A91U C94A G113C] | -3.07
GACCAAUCUGCCCUCAGAGCUCGAGAACAUCUUCGCAUGCAGAGGAGGCAGGCUUCGGUGGCGCGAUAGCGCCAACGUCCUCAACCUCCAAUGCAUCCCACCACAUGAUGAUGCCUGAAGAGCCUUGGAUUUUUG [G36C U129A] | -2.27
GACCAAUCUGCCCUCAGAGCUCGAGAACAUCUUCGUAUGCAGAGGCGGCAGGCUUCGGUGGCGCGAUAGCGCCAACGUCCUCAACCUCCAAUGCAUCCCACCACAUGAUGAUGCCUGAAGAGCCUUGGUUUUUUG [G36U A46C] | -2.09
GACCAAUCUGCCCUCAGAGCUCGAGAACAUCUUCGCAUGCAGAGGAGGCAAGCUUCGGUGGCGCGAUAGAGCCAACGUCCUCAACCUCCAAUGCAUCCCAUCACAUGAUGAUGCCUGAAGAGCCUUGGUUUUUUG [G36C G51A C70A C101U] | -7.34
GACCAAUCUGCCCUCAGAGCUCGAGAACAUCUUCGCAUGCAGAGGAGGCAGGCUUCGGUGGCGCGAUAGCGCCAACGUCCUCAACCUCCAAUGCAUCCCACCACAUGAUAAUGCCUGAAGAGCCUUGGUUUUUUG [G36C G110A] | -1.62
GACCAAUCUGCCCUCAGAGCUCGAGAACAUCUUCGCAUGCAGAGGAGGCAGGCUUCGGUGGCGCGAUAGCGCCAACGCCCUCAACCUCCAAUGCAUCCCACCACAUGAUGAUGCCUGAAGAGCCUUGGUUUUUUG [G36C U78C] | -1.49
GACCAAUCUGCCCUCAGAGCUCGAGAACAUCUUCGCAUGCAGAGGAGGCAGGCUUCGGUGGCGCGAUAGCGCCAACGUCCACAUCCUCCAAUGCAUCCCACCACAUGAUGAUGCCUGAAGAGCCUUGGUUUUUUG [G36C U81A A84U] | -2.7
GACCAAUCUGCCCUCAGAGCUCGAGAACAUCUUCGUAUGCAGAGGAGGCAGGUUUCGGUGGCACGAUAGCGCCAACGUCCUCAACCUCCAAUGCAUCCCACCACAUGAUGAUGCCUGAAGAGGCUUGGUUUUUUG [G36U C53U G63A C123G] | -0.478
GACCAAUCUGCCCUCAGAGCUCGAGAACAUCUUCGUAUGCAGAGGAGGCAGGCUUCGGUGGCGUGAUAGCGCCAACGUCCUCAACCUCCAAUGCAUCCCACCACAUGAUGAUGCGUUAAGAGCCUUGGUUUAUUG [G36U C64U C115G G117U U132A] | -6.32
GACCAAUCUGCCCUCAGAGCUCGAGAACAUCUUCGUAUGCAGAGGAGGCAGGCUUCGGUGGCGCGAUAGCGUCAACGUCCUCAACCUCCAAUGCAGCCCACCACAUGAUGAUGCCUGAACAGCCUUGGUUUUUUG [G36U C72U U96G G120C] | -0.581
GACCAAUCUGCCCUCAGAGCUCGAGAACAUCUUCGUAUGCAGAGGAGGCAGGCUUCGGUGGCGCGAUAGGGCCAACGUCCUCAACCUCCAAUGCAUCCCACCACAUGAUGAUGCCUGAAGAGCCUUGGUUUUUUG [G36U C70G] | -4.21
GACCAAUCUGCCCUCAGAGCUCGAGAACAUCUUCGUAUGCAGAGGAGGCAGGUUUCGGUGACGCGAUAGCGCCAACGUCCUCAACCUCCAAUGCAUCCCACCACAUGAUGAUGCCUGGAGAGCCUUGGUUUUUUG [G36U C53U G61A A118G] | -1.48
GACCAAUCUGCCCUCAGAGCUCGAGAACAUCUUCGUAUGCAGAGGAGGCUGGCUUCGGUGGCGCGAUAGCGCCAACGUCCUCAACCUCCAAUGCAUCCCACCACAUGAUGAUGCCUGUAGAGCCUUGGUUUUUUG [G36U A50U A118U] | -1.34
GACCAAUCUGCCCUCAGAGCUCGAGAACAUCUUCGUAUGCAGAGGAGGCAGGCUUCGGUGGCGUGAUAGCGCCAACGUCCUCAACCUCCAAUGCAUCCCACCACAUGAUGAUGCCUGAAGAGGCUUGGUUUUUUG [G36U C64U C123G] | 0.799
GACCAAUCUGCCCUCAGAGCUCGAGAACAUCUUCGUAUGCAGAGGAGGCAGGCUUCGGUGGCGCGAUGGCGCCAACGUCCUCAACCUCCAAUGCAUCCCACCACAUGAUGAUGCCUGAAGAGCCUUGGUUUUUUG [G36U A68G] | -3.62
GACCAAUCUGCCCUCAGAGCUCGAGAACAUCUUCGCAUGCAGAGGAGGCAAGCUUCGGUGGCGCGAUAGCGCCAACGUCCUCAACCUCCAAUGCAUCCCAUCACAUGAUGAUGCCUGAAGAGCCUUGGUUUUUUG [G36C G51A C101U] | -3.92
